The test deals with ProAgio. The experiment in a line: SPR.

For orientation: Kd means the free concentration of one partner at which half of the binding sites on the other are occupied at equilibrium, for simple one-to-one binding. A high value points to lower affinity.

B1: αVβ3 (receptor)
chain 1: FNLDVDSPAEYSGPEGSYFGFAVDFFVPSASSRMFLLVGAPKANTTQPGIVEGGQVLKCDWSSTRRCQPIEFDATGNRDYAKDDPLEFKSHQWFGASVRSKQDKILACAPLYHWRTEMKQEREPVGTCFLQDGTKTVEYAPCRSQDIDADGQGFCQGGFSIDFTKADRVLLGGPGSFYWQGQLISDQVAEIVSKYDPNVYSIKYNNQLATRTAQAIFDDSYLGYSVAVGDFNGDGIDDFVSGVPRAARTLGMVYIYDGKNMSSLYNFTGEQMAAYFGFSVAATDINGDDYADVFIGAPLFMDRGSDGKLQEVGQVSVSLQRASGDFQTTKLNGFEVFARFGSAIAPLGDLDQDGFNDIAIAAPYGGEDKKGIVYIFNGRSTGLNAVPSQILEGQWAARSMPPSFGYSMKGATDIDKNGYPDLIVGAFGVDRAILYRARPVITVNAGLEVYPSILNQDNKTCSLPGTALKVSCFNVRFCLKADGKGVLPRKLNFQVELLLDKLKQKGAIRRALFLYSRSPSHSKNMTISRGGLMQCEELIAYLRDESEFRDKLTPITIFMEYRLDYRTAADTTGLQPILNQFTPANISRQAHILLDCGEDNVCKPKLEVSVDSDQKKIYIGDDNPLTLIVKAQNQGEGAYEAELIVSIPLQADFIGVVRNNEALARLSCAFKTENQTRQVVCDLGNPMKAGTQLLAGLRFSVHQQSEMDTSVKFDLQIQSSNLFDKVSPVVSHKVDLAVLAAVEIRGVSSPDHVFLPIPNWEHKENPETEEDVGPVVQHIYELRNNGPSSFSKAMLHLQWPYKYNNNTLLYILHYDIDGPMNCTSDMEINPLRIKISSLQTTEKNDTVAGQGERDHLITKRDLALSEGDIHTLGCGVAQCLKIVCQVGRLDRGKSAILYVKSLLWTETFMNKENQNHSYSLKSSASFNVIEFPYKNLPIEDITNSTLVTTNVTWGIQPAPMPV
chain 2: GPNICTTRGVSSCQQCLAVSPMCAWCSDEALPLGSPRCDLKENLLKDNCAPESIEFPVSEARVLEDRPLSDKGSGDSSQVTQVSPQRIALRLRPDDSKNFSIQVRQVEDYPVDIYYLMDLSYSMKDDLWSIQNLGTKLATQMRKLTSNLRIGFGAFVDKPVSPYMYISPPEALENPCYDMKTTCLPMFGYKHVLTLTDQVTRFNEEVKKQSVSRNRDAPEGGFDAIMQATVCDEKIGWRNDASHLLVFTTDAKTHIALDGRLAGIVQPNDGQCHVGSDNHYSASTTMDYPSLGLMTEKLSQKNINLIFAVTENVVNLYQNYSELIPGTTVGVLSMDSSNVLQLIVDAYGKIRSKVELEVRDLPEELSLSFNATCLNNEVIPGLKSCMGLKIGDTVSFSIEAKVRGCPQEKEKSFTIKPVGFKDSLIVQVTFDCDCACQAQAEPNSHRCNNGNGTFECGVCRCGPGWLGSQCECSEEDYRPSQQDECSPREGQPVCSQRGECLCGQCVCHSSDFGKITGKYCECDDFSCVRYKGEMCSGHGQCSCGDCLCDSDWTGYYCNCTTRTDTCMSSNGLLCSGRGKCECGSCVCIQPGSYGDTCEKCPTCPDACTFKKECVECKKFDRGALHDENTCNRYCRDEIESVKELKDTGKDAVNCTYKNEDDCVVRFQYYEDSSGKSILYVVEEPECPKGPD
In turn, B1 returned a Kd of 0.12 nM.

(Values after patent US12655197 (dated 2026).)
